Molecular target: IL-2 receptors (high-affinity IL-2Rαβγ or intermediate-affinity IL-2Rβγ) on PBMC lymphocytes (UniProt P01589)
Assay: cell-based or functional assay

IL-2 receptors (high-affinity IL-2Rαβγ or intermediate-affinity IL-2Rβγ) on PBMC lymphocytes, sequence (P01589 22-272 limits assumed, chain 1 of 3): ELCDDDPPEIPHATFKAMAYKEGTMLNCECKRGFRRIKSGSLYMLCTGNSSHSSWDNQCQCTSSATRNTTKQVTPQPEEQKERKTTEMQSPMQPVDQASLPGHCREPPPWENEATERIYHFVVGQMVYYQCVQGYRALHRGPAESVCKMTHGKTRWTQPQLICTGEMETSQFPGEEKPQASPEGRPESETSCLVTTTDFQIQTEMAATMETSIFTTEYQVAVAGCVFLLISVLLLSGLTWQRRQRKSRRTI
IL-2 receptors (high-affinity IL-2Rαβγ or intermediate-affinity IL-2Rβγ) on PBMC lymphocytes, sequence (P14784 27-551 limits assumed, chain 2 of 3, further chain): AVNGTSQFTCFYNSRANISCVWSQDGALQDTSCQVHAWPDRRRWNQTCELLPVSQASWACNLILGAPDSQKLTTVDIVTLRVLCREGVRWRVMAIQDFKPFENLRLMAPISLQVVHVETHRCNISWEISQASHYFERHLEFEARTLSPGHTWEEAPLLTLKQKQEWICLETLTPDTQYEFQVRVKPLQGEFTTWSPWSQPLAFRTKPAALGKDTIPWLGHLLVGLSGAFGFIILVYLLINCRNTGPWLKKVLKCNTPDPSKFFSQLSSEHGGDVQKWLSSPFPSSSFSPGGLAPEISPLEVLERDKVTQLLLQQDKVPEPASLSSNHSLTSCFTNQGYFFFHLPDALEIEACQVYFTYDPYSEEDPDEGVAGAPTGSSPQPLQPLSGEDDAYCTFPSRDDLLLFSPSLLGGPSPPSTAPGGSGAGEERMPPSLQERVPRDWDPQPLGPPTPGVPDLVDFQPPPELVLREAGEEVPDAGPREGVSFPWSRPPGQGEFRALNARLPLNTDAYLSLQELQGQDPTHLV
IL-2 receptors (high-affinity IL-2Rαβγ or intermediate-affinity IL-2Rβγ) on PBMC lymphocytes, sequence (P31785 23-369 limits assumed, chain 3 of 3, further chain): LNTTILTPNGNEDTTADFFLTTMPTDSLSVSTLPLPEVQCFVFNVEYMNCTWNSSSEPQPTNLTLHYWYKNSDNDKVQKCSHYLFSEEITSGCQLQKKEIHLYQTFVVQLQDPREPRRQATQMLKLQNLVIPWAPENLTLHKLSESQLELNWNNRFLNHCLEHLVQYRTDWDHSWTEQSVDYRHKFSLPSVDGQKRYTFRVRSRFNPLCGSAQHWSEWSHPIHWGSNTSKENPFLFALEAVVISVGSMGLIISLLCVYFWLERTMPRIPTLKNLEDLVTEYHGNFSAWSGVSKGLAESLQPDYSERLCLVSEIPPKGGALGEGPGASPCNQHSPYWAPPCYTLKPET

Work on “XENP27193, an Fc-IL-2(V91K/C125A) fusion as described in WO 2014/153111 (from UniProt P60568 21-153) (Fc fusion)” yielded an EC50, induction of STAT5 phosphorylation (in vitro potency) of 0.01 nM.

Source: patent publication US20250092108A1
